In patent US20120177632A1, “METHODS OF OPTIMIZING DISEASE TREATMENT” (priority 2011, published 2012):

Experiments:
mitochondrial ROS = assay: ATP-induced mitochondrial ROS generation in macrophages (MITOSOX Red, flow cytometry); format: cell-based; conditions: 1,000 units/ml added 24 hr prior to 5 mM ATP for 30 min
Protocol: This example assessed whether ROS generated by the mitochondria may play a role in NLRP3 inflammasome activation. We tested whether IFNβ suppresses ROS generated by mitochondria with MITOSOX™ Red (Invitrogen™). A time course of ATP-induced mitochondrial ROS generation in macrophages was generated using macrophages incubated with 5 mM ATP for the time indicated in FIG. 12A. Macrophages were incubated with 5 mM ATP for indicated time at 37° C. in complete RPMI medium. ROS activity increase was calculated as mean fluorescence intensity value increase (percent) of MITOSOX™ RED staining by flow cytometry. An increase of mean fluorescent intensity (MFI) of the MITOSOX™ staining is shown in FIG. 12(A, B) as the reference point of MFI at time=0 (i.e., no ATP treatment). The ROS activity increase was calculated as mean fluorescence intensity value increase (percent) of MITOSOX™ Red staining by flow cytometry (FIG. 12A).
Suppression of mitochondrial ROS generation by type-1 IFNs was examined. Cells were incubated with 5 mM ATP for 30 min rIFNα or rIFNβ (1,000 units/mL) was added 24 hr prior to the ATP treatment. […]

NADPH oxidase = assay: p47phox foci (active NADPH oxidase) in bone marrow-derived macrophages, confocal microscopy; format: cell-based, mouse; conditions: WT BMMs; 1,000 units/ml 24 h pretreatment, then 5 mM ATP 1 h
GTP-Rac1 = GTP-Rac1 level in bone marrow-derived macrophages (western blot); format: cell-based, mouse; conditions: WT BMMs; 1,000 units/ml 24 h pretreatment, then 5 mM ATP 5, 10 or 15 min
Protocol: Bone marrow-derived macrophages obtained from wild-type mice were pretreated with 1,000 units/ml rIFNα or IFNβ for 24 hours before treatment with 5 mM ATP for 5, 10, or 15 minutes. Cells were then lysed, and total GTP-Rac1 was compared to GTP-Rac1 by western blot first using an antibody specific for GTP-Rac1, followed by membrane stripping and probing with an antibody recognizing total Rac1. GTP-Rac1 signal densitometry for each sample was normalized to total Rac1 using NIH Image/Image J software.

gp91^phox = assay: gp91phox mRNA in bone marrow-derived macrophages (qRT-PCR); format: cell-based, mouse; conditions: WT BMMs; 1,000 units/ml, 24 h
Protocol: Nlrp3, Asc, Casp1 and Txnip mRNA expression were evaluated by qRT-PCR. Bone marrow-derived macrophages from wild-type and Ifnar1^−/− mice were incubated with or without 100 ng/ml Ultrapure LPS for 3 hours, and the mRNA expression for each gene was measured by RT-PCR using standard techniques, showing no significant differences between the samples. Similarly, cell surface expression of ATP receptor P2X7R and CD39 (nucleoside triphosphate diphosphohydrolase 1), an ectonucleotidase that hydrolyzes extracellular ATP, on wild-type and Ifnar1^−/− macrophages were determined to be equivalent by flow cytometry using standard techniques. […] Wild-type bone marrow-derived macrophages were incubated with or without 1,000 units/ml rIFNβ for 24 hours before determining levels of gp91^phox mRNA in the total RNA by qRT-PCR using standard techniques. […] DQ ovalbumin staining locates lysosomes. The proportion of cells with DQ ovalbumin leakage to cytoplasm due to ruptured lysosomes was evaluated by incubating wild-type and Ifnar1^−/− macrophages with DQ ovalbumin (10 μg/ml) alone or a combination of DQ ovalbumin (10 μg/ml) and Alum (250 μg/ml) for 1 hour. Wild-type cells were also measured with and without exposure to rIFNα.

B1: rIFNβ: recombinant mouse IFN-β (protein, UniProt P01575 22-182, looked up)
Interferon beta: INYKQLQLQERTNIRKCQELLEQLNGKINLTYRADFKIPMEMTEKMQKSYTAFAIQEMLQNVFLVFRNNFSSTGWNETIVVRLLDELHQQTVFLKTVLEEKQEERLTWEMSSTALHLKSYYWRVQRYLKLMKYNSYAWMVVRAEIFRNFLIIRRLTRNFQN
- mitochondrial ROS generation (mitochondrial ROS): suppressed
- formation of p47phox foci (NADPH oxidase): inhibited the formation of p47^phox foci
- cellular levels of GTP-Rac1 (Rac1 activation) (GTP-Rac1): inhibit activation of GTP Rac1
- gp91phox mRNA expression (gp91^phox): did not affect gp91^phox mRNA expression
